Results on one protein are retold here after doi:10.1101/2023.12.10.570962 (bioRxiv, 2023).

A word on the stoichiometry N: it is a count of units in the complex or per binding partner.

The data set concerns the molecule itself. Nature of the data set: SEC-MALS. Background: Size exclusion chromatography separates by hydrodynamic size, large species first.

B1: Lcl C-terminal domain (Lcl-CTD), residues 252 to 401 (domain or fragment)
chain: MAHHHHHHVDDDDKMETGQVLAKSNDLDFNTMWVDPANSGIRRQLGDKALGGTVIYVNALGTHGLVVANSDQVNSNTWWDAQDSITNPAHFDNEGKLYSDWRLPTRFELNLIYMMRNELGNFLAGNYWSSIEKSSANSWVFNSKTGEIKDIAKSKTAAVRAVRAF
Turning to B1, the “stoichiometry N” value turned out to be 3.
